In patent US20240182536A1:
Values joined by “and” are separate entries in the source; they are usually repeats but may differ in a detail not shown here. Equal values may be shown once. Read-outs that look alike come from different tables or passages of the source. Each block holds one substance with its values, some of them ahead of it.

Key:
Assay in all cases: cell-based or functional assay
[1] = molecular target: IL-18 receptors on HEK-Blue IL-18 reporter cells (UniProt Q13478)
[2] = molecular target: human IL-18 binding protein (human) (UniProt O95998)
Chain of human IL-18 binding protein (human) (O95998 31-194 limits assumed): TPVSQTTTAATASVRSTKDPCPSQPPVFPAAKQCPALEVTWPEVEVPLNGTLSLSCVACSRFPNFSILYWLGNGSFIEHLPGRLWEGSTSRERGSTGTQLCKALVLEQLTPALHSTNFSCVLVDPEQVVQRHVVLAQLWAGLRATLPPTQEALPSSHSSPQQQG

[3] = molecular target: interleukin 18 binding protein (IL-18BP) (UniProt O95998)
Chain of interleukin 18 binding protein (IL-18BP) (O95998 31-194 limits assumed): as above

[4] = molecular target: IL-18 receptors on HEK-Blue IL-18 reporter cells (UniProt Q13478); remark: listed apart in the source
[5] = molecular target: human IL-18 binding protein (human) (UniProt O95998); remark: listed apart in the source
[6] = molecular target: T1, IL-18 receptor (IL-18Rα and IL-18Rβ) (UniProt Q13478)
T1 sequence (looked up) 1: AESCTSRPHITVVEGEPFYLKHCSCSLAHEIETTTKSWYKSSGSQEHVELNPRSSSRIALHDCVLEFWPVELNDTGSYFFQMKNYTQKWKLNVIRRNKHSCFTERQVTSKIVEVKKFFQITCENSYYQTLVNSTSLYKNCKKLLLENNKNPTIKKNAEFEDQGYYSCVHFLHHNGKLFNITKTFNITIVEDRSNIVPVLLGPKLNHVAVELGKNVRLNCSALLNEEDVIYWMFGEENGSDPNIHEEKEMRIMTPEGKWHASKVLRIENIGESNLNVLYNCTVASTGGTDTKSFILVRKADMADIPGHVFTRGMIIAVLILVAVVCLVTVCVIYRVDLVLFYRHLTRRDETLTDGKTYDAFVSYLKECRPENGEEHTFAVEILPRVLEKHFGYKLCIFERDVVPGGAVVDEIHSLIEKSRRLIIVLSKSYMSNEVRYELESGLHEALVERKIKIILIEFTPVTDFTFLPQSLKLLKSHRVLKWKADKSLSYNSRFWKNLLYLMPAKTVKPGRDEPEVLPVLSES
T1 sequence (looked up) 2: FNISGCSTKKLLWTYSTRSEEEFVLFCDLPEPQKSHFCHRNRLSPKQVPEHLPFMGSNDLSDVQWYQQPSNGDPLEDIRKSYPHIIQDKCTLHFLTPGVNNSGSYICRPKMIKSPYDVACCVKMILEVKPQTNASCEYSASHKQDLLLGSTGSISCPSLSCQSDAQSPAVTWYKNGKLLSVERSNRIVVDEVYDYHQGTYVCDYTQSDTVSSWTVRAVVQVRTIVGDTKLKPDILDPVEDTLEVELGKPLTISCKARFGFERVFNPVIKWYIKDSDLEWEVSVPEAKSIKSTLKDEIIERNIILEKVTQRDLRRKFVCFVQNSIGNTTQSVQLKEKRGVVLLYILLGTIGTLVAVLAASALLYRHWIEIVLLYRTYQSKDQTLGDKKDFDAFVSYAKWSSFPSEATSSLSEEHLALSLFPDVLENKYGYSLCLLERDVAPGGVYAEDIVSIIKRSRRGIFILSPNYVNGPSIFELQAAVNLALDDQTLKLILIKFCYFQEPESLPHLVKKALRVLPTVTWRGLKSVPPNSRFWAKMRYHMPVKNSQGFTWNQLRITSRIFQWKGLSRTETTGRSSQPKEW

[7] = molecular target: IL-18 binding protein (IL-18BP) (UniProt O95998)
Chain of IL-18 binding protein (IL-18BP) (O95998 31-194 limits assumed): as the sequence (O95998 31-194 limits assumed) above

Chain of WT-hIL-18-monoFc (Fc fusion) (chain): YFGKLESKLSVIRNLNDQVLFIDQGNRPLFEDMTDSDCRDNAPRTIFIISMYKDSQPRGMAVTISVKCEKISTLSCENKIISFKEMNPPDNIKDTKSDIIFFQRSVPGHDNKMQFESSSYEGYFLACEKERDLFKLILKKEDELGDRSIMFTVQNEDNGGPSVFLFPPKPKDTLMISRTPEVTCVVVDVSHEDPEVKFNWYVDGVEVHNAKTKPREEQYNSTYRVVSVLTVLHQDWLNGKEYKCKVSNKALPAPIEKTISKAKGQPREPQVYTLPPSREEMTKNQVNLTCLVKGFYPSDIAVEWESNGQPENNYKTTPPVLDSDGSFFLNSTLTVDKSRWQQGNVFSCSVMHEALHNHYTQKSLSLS
Chain of WT-monoFc (Fc fusion) (chain): as above
Chain of WT-monoFc (wild-type human IL-18 linked to monoFc) (Fc fusion) (chain): as above

Substance: G3T/M60K-monoFc (Fc fusion)
HEK-blue EC50 (pM) - IL-18BP [1]: 0.21 pM
HEK-blue EC50 (pM) + 300 nM IL-18BP [2]: 1.78 pM

Substance: G3V/M60K-HSA-his-avi
HEK-blue EC50 (pM) - IL-18BP [1]: 0.19 pM
HEK-blue EC50 (pM) + 300 nM IL-18BP [2]: 3.83 pM

Substance: IL-18 variant S36E, D40A, N41M, K53T, S55Y, P107S (ligand)
HEK-Blue activity, No BP, DF-10000 [1]: 0.24
HEK-Blue activity, No BP, DF-100,000 [1]: 0.11
HEK-Blue activity, No BP, DF-1,000,000 [1]: 0.09
HEK-Blue activity, +100 nM BP, DF-10000 [3]: 0.25
HEK-Blue activity, +100 nM BP, DF-100,000 [3]: 0.11
HEK-Blue activity, +100 nM BP, DF-1,000,000 [3]: 0.09
Ratio (-BP/+BP), DF-10000 [3]: 0.97
Ratio (-BP/+BP), DF-100,000 [3]: 1.02
Ratio (-BP/+BP), DF-1,000,000 [3]: 1.01

Substance: WT-hIL-18-monoFc (Fc fusion)
HEK-blue EC50 (pM) - BP [4]: 0.495 pM
HEK-blue EC50 (pM) + 1000 nM BP [5]: 99.8 pM
HEK-Blue activity, No BP, DF-10000 [1]: 2.24
HEK-Blue activity, No BP, DF-100,000 [1]: 2.08
HEK-Blue activity, No BP, DF-1,000,000 [1]: 1.75
HEK-blue EC50 (pM) - BP [1]: 0.458 pM
HEK-blue EC50 (pM) - IL-18BP [1]: 0.29 pM
HEK-Blue activity, +100 nM BP, DF-10000 [2]: 0.92
HEK-Blue activity, +100 nM BP, DF-100,000 [2]: 0.29
HEK-Blue activity, +100 nM BP, DF-1,000,000 [2]: 0.24
HEK-blue EC50 (pM) + 300 nM BP [2]: 221 pM
HEK-blue EC50 (pM) + 300 nM IL-18BP [2]: > 500 pM
Ratio (-BP/+BP), DF-10000 [2]: 2.45
Ratio (-BP/+BP), DF-100,000 [2]: 7.16
Ratio (-BP/+BP), DF-1,000,000 [2]: 7.32

Substance: WT-monoFc (wild-type human IL-18 linked to monoFc) (Fc fusion)
EC50 (pM), PBMC IFN gamma assay, + 300 nM BP [3]: 611 pM
Ratio (HEK-blue EC50, + 100 nM BP against - BP) [3]: 520 and 360 and 338
EC50 (pM) - BP, HEK-blue re-screening [6]: 0.51 pM and 0.43 pM and 0.6 pM
EC50 (pM), PBMC IFN gamma assay [6]: 96.8 pM

Substance: hDR-18-monoFc (Fc fusion)
Activity, +100 nM BP, DF-1000002 [7]: 2.01
Activity, +100 nM BP, DF-5000003 [7]: 1.95
Activity, +100 nM BP, DF-25000004 [7]: 1.59
Ratio (-BP/+BP), DF-1000005 [7]: 0.99
Ratio (-BP/+BP), DF-5000006 [7]: 0.98
Ratio (-BP/+BP), DF-25000007 [7]: 0.93
Activity, No BP, DF-100000 [1]: 2
Activity, No BP, DF-500000 [1]: 1.91
Activity, No BP, DF-2500000 [1]: 1.49
HEK-Blue activity, No BP, DF-10000 [1]: 2.19
HEK-Blue activity, No BP, DF-100,000 [1]: 2.26
HEK-Blue activity, No BP, DF-1,000,000 [1]: 2.16
HEK-Blue activity, +100 nM BP, DF-10000 [2]: 2.21
HEK-Blue activity, +100 nM BP, DF-100,000 [2]: 2.19
HEK-Blue activity, +100 nM BP, DF-1,000,000 [2]: 2.1
Ratio (-BP/+BP), DF-10000 [2]: 0.99
Ratio (-BP/+BP), DF-100,000 [2]: 1.03
Ratio (-BP/+BP), DF-1,000,000 [2]: 1.03

Substance: hIL18(G3P, E6K, D54Y, S55P, T63S, N91S, R104Q)-monoFc (Fc fusion)
EC50 (pM), PBMC IFN gamma assay, + 300 nM BP [3]: 74.5 pM
EC50 (pM), PBMC IFN gamma assay [6]: 19.5 pM

Substance: hIL18(G3P, E6K, D54Y, S55P, T63S, N91S, R104Q, Q154R)-monoFc (Fc fusion)
EC50 (pM), PBMC IFN gamma assay, + 300 nM BP [3]: 64.1 pM
EC50 (pM), PBMC IFN gamma assay [6]: 85.6 pM

Next, values leading:

HEK-blue EC50 (pM) - IL-18BP [1]: 0.06 pM
HEK-blue EC50 (pM) + 300 nM IL-18BP [2]: 2.81 pM
Substance: G3T/E6K/K53A-monoFc (Fc fusion)

HEK-blue EC50 (pM) - IL-18BP [1]: 0.36 pM
HEK-blue EC50 (pM) + 300 nM IL-18BP [2]: 4.25 pM
Substance: G3T/M60K-HSA-his-avi

HEK-blue EC50 (pM) - IL-18BP [1]: 0.15 pM
HEK-blue EC50 (pM) + 300 nM IL-18BP [2]: 1.57 pM
Substance: G3V/M60K-monoFc (Fc fusion)

HEK-blue EC50 (pM) - BP [1]: 0.52 pM
HEK-blue EC50 (pM) + 300 nM BP [3]: > 500 pM
Ratio [3]: 947
Substance: WT-monoFc (Fc fusion)

Activity, +100 nM BP, DF-1000002 [7]: 0.11
Activity, +100 nM BP, DF-5000003 [7]: 0.08
Activity, +100 nM BP, DF-25000004 [7]: 0.07
Ratio (-BP/+BP), DF-1000005 [7]: 17.4
Ratio (-BP/+BP), DF-5000006 [7]: 17.4
Ratio (-BP/+BP), DF-25000007 [7]: 10.5
Activity, No BP, DF-100000 [1]: 1.94
Activity, No BP, DF-500000 [1]: 1.43
Activity, No BP, DF-2500000 [1]: 0.77
Substance: wt-monoFc (from UniProt Q14116 37-193; P01857 119-327) (Fc fusion)
